Experimental data taken from PMC4212835.

Target: Enterococcus faecalis pyruvate dehydrogenase complex component E2 (dihydrolipoamide acetyltransferase) (Enterococcus faecalis)
Experiment: SEC

Row | Substance | relative abundance of subunits E1, E2, and E3 (mass ratio, E2 = 1) [mass ratio]
1 | Enterococcus faecalis pyruvate dehydrogenase complex component E1 (pyruvate dehydrogenase; E1α and E1β) (from UniProt A0ACD6TC15 1-371) | 2.27
2 | Enterococcus faecalis pyruvate dehydrogenase complex component E3 (dihydrolipoyl dehydrogenase) (from UniProt A0ACD6TCW3 1-468) (enzyme) | 1.26
